Here are results for two molecules from article PMC3871595, “Structure Based Identification and Characterization of Flavonoids That Disrupt Human Papillomavirus-16 E6 Function” (PLoS ONE, 2013).

Assay [1] has as its target T1, GST-HPV-16 E6 (human papillomavirus type 16), P03126.
T1 chain: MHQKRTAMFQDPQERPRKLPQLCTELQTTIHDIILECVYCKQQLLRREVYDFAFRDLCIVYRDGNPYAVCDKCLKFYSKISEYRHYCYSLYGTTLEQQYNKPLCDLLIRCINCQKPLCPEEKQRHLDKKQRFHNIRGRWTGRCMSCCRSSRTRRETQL
Nature of the assay: filter plate bead binding assay (BAP chemiluminescence); competition: peptide added to bead-bound GST-E6 and free E6AP-BAP; 1 hour incubations.

The next assay addresses T2, GST-HPV-16 E6 (human papillomavirus type 16, UniProt P03126 1-158).
T2 construct: early protein 6 (E6) of human papillomavirus type 16; also called GST-E6; GST-16 E6; source: E. coli BL21, purified on glutathione Sepharose beads and kept on the beads
Nature of the assay: filter plate bead binding assay (BAP chemiluminescence); dissociation rate experiment: GST-E6 and E6AP-BAP bound to equilibrium, unbound E6AP-BAP washed away, decrease in BAP signal at each time point. The note with it: both partners purified.

In the case of IPESSELTLQELLGEERR (modifications not checked) [E6AP 18-mer peptide], the percent inhibition at 100 µM in assay [1] was 95%.

B1: E6AP-BAP fusion protein (E6AP residues 371-440 fused to bacterial alkaline phosphatase) (domain or fragment, UniProt Q05086 371-440, looked up)
chain: ASKCLKMVYYANVVGGEVDTNHNEEDDEEPIPESSELTLQELLGEERRNKKGPRVDPLETELGVKTLDCR
notes: also called FLAG-tagged E6AP-BAP; source: E. coli BL21, purified (anti-FLAG resin, glycine pH 2.5 elution)
For B1, in the assay with GST-HPV-16 E6, the “half-life of ligand dissociation (t1/2)” value was 3.6 min.
